In patent US6610500:

Key:
[1] = target: human p140 TrkA receptor (human) (UniProt P04629); assay: Scatchard analysis of 125I[5C3] binding to 4-3.6 cells
[2] = target: human p140 TrkA receptor (human) (UniProt P04629); assay: cell-based or functional assay
[3] = target: human p140 TrkA receptor (human) (UniProt P04629); assay: summary of the 125I[5C3] binding studies
[4] = target: human p140 TrkA receptor (human) (UniProt P04629); assay: Scatchard analysis of 125I[5C3] binding to E25 cells, 4° C.
[5] = target: human p140 TrkA receptor (human) (UniProt P04629); assay: Scatchard analysis of 125I[5C3] binding to E25 cells
[6] = target: human p140 TrkA receptor (human) (UniProt P04629); assay: 125I[NGF] binding to E25 cells after preincubation with excess unlabeled mAb 5C3
[7] = target: human p140 TrkA receptor (human) (UniProt P04629); assay: 125I[NGF] (~1 nM) binding to E25 cells after preincubation with excess unlabeled mAb 5C3; competitor unlabeled mAb 5C3
[8] = target: human p140 TrkA receptor (human) (UniProt P04629); assay: Scatchard analysis of 125I[5C3] binding to 4-3.6 cells, 4° C.
[9] = target: human p140 TrkA receptor (human) (UniProt P04629); assay: 125I[NGF] binding to E25 cells blocked with 5 µM unlabeled NGF (defined as background)
[10] = target: human p140 TrkA receptor (human) (UniProt P04629); assay: FACScan 5C3 surface staining of 4-3.6 cells after NGF treatment at 37° C., relative to vehicle (100%); competitor mAb 5C3
[11] = target: human p140 TrkA receptor (human) (UniProt P04629); assay: FACScan 5C3 surface staining of 4-3.6 cells after NGF treatment at 4° C., relative to vehicle (100%); competitor mAb 5C3

UniProt P04629, sequence (P04629 33-796): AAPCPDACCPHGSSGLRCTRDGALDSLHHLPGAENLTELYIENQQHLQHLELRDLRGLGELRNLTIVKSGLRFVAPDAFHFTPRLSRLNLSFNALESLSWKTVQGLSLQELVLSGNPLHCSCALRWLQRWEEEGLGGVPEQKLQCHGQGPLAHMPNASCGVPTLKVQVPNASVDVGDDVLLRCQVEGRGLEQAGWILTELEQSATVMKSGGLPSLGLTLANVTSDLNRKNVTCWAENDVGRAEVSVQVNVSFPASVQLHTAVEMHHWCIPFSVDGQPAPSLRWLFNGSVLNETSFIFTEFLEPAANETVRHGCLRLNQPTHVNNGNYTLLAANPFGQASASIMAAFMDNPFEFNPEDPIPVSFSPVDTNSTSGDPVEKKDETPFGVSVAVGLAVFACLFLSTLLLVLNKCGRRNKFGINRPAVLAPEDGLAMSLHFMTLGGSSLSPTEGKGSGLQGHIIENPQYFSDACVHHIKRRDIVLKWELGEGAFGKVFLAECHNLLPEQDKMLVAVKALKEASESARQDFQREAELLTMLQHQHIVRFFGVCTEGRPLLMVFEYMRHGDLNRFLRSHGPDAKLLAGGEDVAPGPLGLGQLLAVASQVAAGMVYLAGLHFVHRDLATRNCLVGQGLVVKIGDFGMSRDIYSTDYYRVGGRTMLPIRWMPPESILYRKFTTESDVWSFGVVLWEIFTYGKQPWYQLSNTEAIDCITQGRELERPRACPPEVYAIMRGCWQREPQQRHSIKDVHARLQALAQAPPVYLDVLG

5C3 binding sites/cell [1]	% 5C3 STAINING after 5C3 (0.01 µg/ml) treatment at 4° C. (receptor internalization, 4-3.6 cells) [2]	% 5C3 STAINING after 5C3 (0.01 µg/ml) treatment at 37° C. (receptor internalization, 4-3.6 cells) [2]	FOLD INCREASE IN FOCI with respect to mIgG treated cells [2]	TYPICAL CELLS/FOCI (E25 cells in soft agar) [2]	fold increase in PY of TrkA with respect to untreated cells (4-3.6 cells) [2]	fold increase in PY of TrkA with respect to untreated cells (E25 cells) [2]	Kd [3]	Kd [4]	5C3 binding sites/cell [5]	% inhibition of 125I[NGF] binding [6]	% NGF BINDING [7]	Kd [8]	% NGF BINDING [9]	% 5C3 STAINING [10]	% 5C3 STAINING [11]	Substance
200000 sites/cell	96%	77%	1.9 fold	> 48 cells/foci	3.4 fold	2.7 fold	2 nM	1.6 nM	250000 sites/cell	60%	39.3%	3 nM				anti-human TrkA monoclonal antibody 5C3
			1.6 fold	24 cells/foci	3.8 fold	6.5 fold							0%	75%	83%	Nerve Growth Factor (ligand)
